Experiment: soluble fraction after stress (log2 fold change); higher = more stays soluble; pooled small domains, quantitative proteomics
Conditions: stress: 50 degC
Outline: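 After stress at 50°C, the amount of each protein still soluble was measured. This was done on pooled custom libraries of small protein domains, using high-throughput quantitative proteomics. The figure given is a base-two log fold change and stands for aggregation propensity, with higher values meaning more protein stays in solution.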

Sequence	soluble fraction (log2)
HMEKAYVWTDTRTFDVQNYIGKKKSEVKNDQYGFEFLGEGDYVIDQLPRVGEQIEEGQKVKIMLGNQQEI	0.0468
HMRTKLEEAVEWLQEQLNDGPVLSKELESEAKAADILPGTLRRAGEALGVVKQKQGGRGGWTWSLPR	0.14
HMAAGKGVTTGSVRLRKGSNTDSAIIATLKKDTELILYGKKDGWYSVKTSDGTEGFVSSKYVKVTEAY	0.313
HMDAKIKDYADAYAKMDPQQAASLFNNMTTGSLDLVAKILENIPANKRAAILEKMDVNAAAQVTEKMR	0.117
HMGELVIPPLRERTVVDAVAEAERLGFVVQVEPVASSLPEGRVLGQSPEPGTRARKSQVVVLQVSRG	-0.148
HMKRELFVEPGMRLEHTPSKTSGPVVSFIEGVIVVIKDQLGSEHRFDPVPGFFRHEGDLVALRSPLL	-0.282
HMTKPAEVRIDELMNAAQTLFLAKGVEATTISEIIASVGVAKGTFYHYFESKQHIVEALKKRYID	-1.49
HMKVWYAGINAQRVGPMTLGAMEQQIRYGRVLFSTLIWKSPMPQWVPAGDVPELRRLLDEHMLNQMP	-0.381
HMRPEFVVALSGADLGKLHRLYELGEVLSREDDAEGVTHAVLRVPDKHEHAFHAEFPQARPM	0.378
HMKNVENIILEQLKKNIYDDLNNASFEEIILIDAEKSIYKGTIKANYIEYNFKINLSTGEILKWKLK	-0.117
HMAGISQGLAENVERRITTLLREQKEVPVHDIDFPGISRETVGQVLHQMVQEEKLLLDDGMISLSPNQ	0.143
HMVRQKYKSNFITVGDKSLTIHDWAQRLNLSQYALRNRYKEFGKEWVEKAIKTILETGDNTHIYK	-0.847
HMQSYSTIIGVIELRLSGIGYRTTKARYGIGNSTVTLIMNRFKETGFTLDDLKTMEPTKVEALFYPP	-0.873
HMGQDTTIVVRRGESLLGIAARLLPATDFYTTGELAEGIRTASGMENDRLIPGQTLRVPLNSG	-0.0889
HMDRRFFVAEENYKRLDVFLSERMEEFTRSRIKKLIDEGHVELNGKSAKAGAEIRPGDEVAAEIPEVKE	0.147
HMKTEIGQAMRKLRKAKKMTQDTLAEKLGVAPANISRYEKGQQGIEVDKLPTLADALGVSVPEFFAIASG	0.0437
HMDDSPTARALRTLDLIHNRPGITAAELADRLGVTERAVRRYVLTLRDAGVPVLGTPGRYGGYQVGK	-0.426
HMEPTPREIVVQQLGYRGLEVLGNAEYQFPKETQIIILKLAELISSGSVTETLEGGKLLALFRGVGINVR	-1.59
HMASELQQVQALLESQRYNEALILIETTIGKGASESTELLFARADVFASSGRHDEAEQAYREL	-0.0838
HMSQLDITEARIVVSGGLGMQGPENFKLLEELAKVLGGAVGASRPVVDNGWREYSNQVGQTGKIVAPELYV	-0.0903
HMNKLIIDAAEDKIFFMIMNNDISYNISHENTKINFEKLIILINDFLSSKKLKINDITGLYV	0.067
HMDGPELYESMKAIVPDQLDRTIFLTGGAYTPRAQEFLARVPNQQMEKPFEFEALRSLLARLT	0.0477
HMITIDNYFNKEKELDFSSFPEALRKGHGFVSKATAHGSSWVSYHSSDAIKKTIDIYLSKLNEYLSNNAKA	-0.494
HMYRYYSTLRPITPGAYPKPADNPAMLIHNFDNREYVGKIGREAWGYVEYNNPLTKEQIEAFDFVAE	0.0677
HMQLSASQQQILNHAAVNTDGKLVWFPETLKGGARKKVLDSLFSRALITTDGTHWFVAAEGYEALGIP	-0.877
HMGDGRVGVITASIAYEYAKEVFPEGTSFLKLGLTFPLPMDLIRDFASKVEKLYVIEELEPL	-0.215

Sequence	soluble fraction (log2)
HMEISEILNPPLVTAMAERYPEVDVSYYRDKYILYYESREHKITDHRRNFEKWLLVESQKEEN	-1.07
HMSSHSAEAVRHRIKSMIDHEARDGDVLSDDRIVELLNQAGIDIARRTVAKYREALRIPSSVERKRRLKA	0.0377
HMEAPPHEALSNREFQVLQLLSQGRSVTQIAHQLTLSANTISTYRARIFDKLGLHNPADLYAYAARHGLM	-0.676
HMNTDEYEQKRGEILDAAQRLIYTKGYERMSIQDILDELKISKGAFYHYFDSKQSLLEALTARMMTE	-0.101
HMSYPTAVTQTTLNVRTGPGTQYERLGAFVENTEVIVLTRQPEWIQVRGMSGDKAIIGWVSARYLQMNP	-0.457
HMGYSSKISELLTKYNMNASELAQKVGVPPTTIYSIIKRDSKKADIEVLIKIAKLFNVPVEYF	-0.99
HMDLRYKVQYNFIDQGMMTKDELLKFSLNQDDVSKIAVFDNDSKQWKEIYAITEISEKLGIS	-0.0611
HMRKIKDVLRLKLHAGLSHERVAASLNISKGVVAKYTSLAAAAGLDWPTVERLSEAALERRLV	-0.135
HMPRDQQENIYLLEKGKRLYEEHLGDQRQIIGHRIMIFERILESQDHAQIRRAQSEFAEFLSHYDG	-0.229
HMQKPWFYESSGQRKGGFSEQEMVGLITDGEITHGAIVWRNGLSDWTKLEQTELAAHLDKTA	-0.249
HMEKIDEDIMDVLKKKAEVSGISLGVLKSIYEKAVKQYKLGHEIGQVKEQYAMQKVNTHLLENK	0.194
HMNKIENLSQTILNILRKDHSQAFNYKQIAAKLQLDDPSSRNQIVKKLKDLQGKGTIQEIERGKYILTP	0.358
HMEGFKSVYFLTTPSGAEISDRSVGDIISKTPSLVSAQEGTEFEFNLKGYQPSFYMINKRSPDRVFVELIP	-0.535
HMERQILFTKEDLIEFGLSGGTDSRKRRDVLGHILGIGYSNSKQFLNRLNNFGVTREEFLSAIERIG	-0.778
HMSLIEQKSQIPLVQGGQRVDKVAAALFTDFSRAELTGWIQQGALTLDGAVVKPKYKVLGGEWLYLRASQS	-2.02
HMQLGSILAYKFPQFGGIDGAWQVRDDSNGTGPYIAFWDAKTIGRGMPTEDELTAWAQEYEA	-0.153
HMYNMEELAGHTEKVYNSLPEELKLVIKLREIENMSYDEISLKTGMPIGTVRSRLHRAREILVDSLKDY	-0.367
HMTEKIEWYKEVLDLEPNSKIFFPLAKMLEKEGELEEARRVLAEGVSRHEEFLEARLFYISVLSRL	-0.169
HMDTMQQESMDTKSILATALMELTSRKNFAKITIADITHVSGFNRQTFYYHFRDKYELLSWIY	0.0516
HMDTVEALTEQLKKLDKRGEGQIPAPEFKQYMMNMGGKMTAEELDEMMKVADPGKEGVVNIAEFADAL	0.35
HMGKDTLKLKKNAIPYDENGKKLTNLGYSYIKKTTVLNYYGTKIINGSTYYFLGDGVYIKAANVGTTSH	-2.23
HMSEKLLTLNEISEKLRVSRHTVQAWVSPSSPNHRPEFSSLARHAGRKTVFLESDVDAWLAQRR	-0.839
HMVRKIQAKLVLRLHAQGLSGRAIARSQGMSRRSVSDVLDAARAVGVGWDDVTGKTDGEVYALLFPGRG	-2.47
HMLISAESVKRRLEMIRHLILLGDYEDVTAQVIKLNPAANEYKLTPIIEELNGGKYQEALEKINSYLSKF	0.0802
HMVEVVDAEKLEERLSKVFSAAVLLEIYNENPAHGKEYAYLFTARKNAVEEMIENGQMKRETWEAK	-0.963
HMEEPEYELLRQAVLALPEKYRLPIHLYYYEEYSVREIAEILQRKESAVQTQLQRGREKIRRSLTEKGVS	-0.77

Sequence	soluble fraction (log2)
HMFRSNAERAAHLASALPRAEAELAALQARGAATSENIYLRSSYFDALRYTEELRAAKRAQDALQGA	0.0735
HMITPAGVPPALLPVFDQFTLPDGTLRRGAVAAALRALYGPDAPQSGKRYQMEYDRVMAWHSQYFTSLH	-0.34
HMLRPEEMIYHEMLDAILDRRLEPGMKLVEEDLAKTFGVSRARIRATFLQLAHDKLINLVPNRGAFVAEP	-1.77
HMPSPEVELLEDLLSKTDEAEVEAAFHENQALVNDEFKAMLGSLIQELSKTQEADPEIIARIRFIQKLT	0.16
HMQFEIGDTVRVHVNIREGERERVQMFEGTVIAKRGSGVSETFTVRRVSYGVGVERVFPVNSPNV	0.105
HMVINVNEIIRRIKELKTFKTDRQVADFLGVSKATVSNWMARNSIDFPLLINKLDGVDLTWLLTGRGTPE	-1.16
HMGSWDDFFNAIRLDNPNTLQALLQRGFDPNTVDQQGTPALMRALQEQSYRAAEVLADHPQI	-0.459
HMNVKVYATIDGDNFKVSGLKPGSNVRVYSSNGSAVFEKKAGDSEMIIPAGAWTKGIYVISADDQSIKVT	-0.109
HMEFDFGAILSGNGGSELYSGYSAEQKAALVEAAKADGMDVEFGADGSTTFKDKDGSEVVQKADGTWTV	0.18
HMDSAVLQKHLVKLIELHAPIKARNLAKILADEFGKHVDRSAVNSALYSLKAERKVEVNSSYEWSLD	-2.11
HMSLPALSAEEQKIVDALHGTPKGVDDIIAETGISSGALLRSLTMLELKKVIVRLPGNRIAPK	-0.128
HMGIYDQAAAAYIEFVESKNRAPKWNELIDALYKENGKDWIDRSTLHGLLRRKEFQELLAQKRKEHLV	-0.184
HMKDYTIDDIINSKVEHPLGGYQSRFKVGEYEVSVVGGRQTNHGDFIHTFELAIFDKNNNFLRNLTPVTID	-0.0394
HMLEIGRYNTLTVLRKVDFGYYLDGLDYGDILMPAKYAATELEAGDEVDVFIYLDSSEKLIATTETPIAQ	-3.38
HMRTLGADLRALRKARGLTLAGMADNMGKSVGWMSQIERDISEPSISDLRALAKLLDVSVSSLFR	-2.23
HMREGNELLGKEGVTVSELRPAGIALIDGRRTDVVTDGEFVAVDQAVEVVEVSGNRVVVRRS	0.0948
HMENYYMPVVAGQSEQDAKSMLNAMKLSLSIQVQEQESDSVAKGLAIGTSPAAGSQIRKGSSVILYISKGA	-0.0609
HMVKLSDGIVEHIKSLIMAGRLKPGDKLPPEREFAATLGVSRTALREAVRTLSLMGLLDARQGEGTFVSG	-0.116
HMEYTVNHYPEKHRFEVVEDGLTAYVEYRLRGDALDIIHTIVPKNLEGRGIAATLVETAYKYAKEQ	-1.2
HMEEDPIIIAQRFLNIFRQLHIFSEEKKESFNKMLLEQPAEIRGALRSLPGGGLLQDYIDDLESKA	-0.151
HMNSKYILLQVSDIPKTSLVLERQFGVTEYSVQDEHTLRIYDTSLDMAAVNKALVVQDIAVISSQL	-0.353
HMKLRLGVNIDPVATVRNARGSAYPDPVRAAIIAQEAGADGITAHLREDRRHIVDQDITSIIKAIDIPLNF	-0.0391
HMIPDLPAIGENLYRERKRQQLSMAELAAASGISKAMLSQIEADKVNPTIATLWKIAHALHVDLESLISGG	-0.578
HMNQNIYVPKLEGLQIEEASSILKSKGLNIEITDSIFRKDAVPGAIIEQTPKPNSRVKTGRNIYVSIYSK	-0.0536
